{"source": "patent US20170267761A1", "biological_target": "Sortilin SORTECD_HIS (human) (UniProt Q99523)", "sequence (Q99523 other isoform, or with tags, fused parts or gaps limits assumed)": "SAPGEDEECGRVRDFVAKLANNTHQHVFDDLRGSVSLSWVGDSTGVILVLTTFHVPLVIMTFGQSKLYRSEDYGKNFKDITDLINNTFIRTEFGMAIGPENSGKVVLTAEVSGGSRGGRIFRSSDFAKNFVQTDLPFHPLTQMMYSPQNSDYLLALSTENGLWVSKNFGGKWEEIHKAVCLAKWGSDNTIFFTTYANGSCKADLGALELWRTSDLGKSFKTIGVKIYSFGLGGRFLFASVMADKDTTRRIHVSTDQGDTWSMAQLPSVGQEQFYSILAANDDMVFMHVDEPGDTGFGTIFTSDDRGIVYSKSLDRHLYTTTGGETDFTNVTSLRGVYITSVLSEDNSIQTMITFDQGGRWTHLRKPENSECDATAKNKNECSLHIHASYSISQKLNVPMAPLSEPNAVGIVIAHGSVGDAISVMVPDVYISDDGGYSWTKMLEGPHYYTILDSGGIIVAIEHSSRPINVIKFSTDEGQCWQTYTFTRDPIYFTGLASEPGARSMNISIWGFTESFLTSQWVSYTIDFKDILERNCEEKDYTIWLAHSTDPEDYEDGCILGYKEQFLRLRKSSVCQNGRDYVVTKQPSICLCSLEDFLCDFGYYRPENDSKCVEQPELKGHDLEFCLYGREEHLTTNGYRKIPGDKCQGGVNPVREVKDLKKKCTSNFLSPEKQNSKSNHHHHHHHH", "assay": "HTRF, displacement of PGRN from His-tagged Sortilin ECD"}
{"substance": "IgG1-b12 (antibody)", "values": [{"measurement": "% inh highest conc", "result": 37, "unit": "%"}, {"measurement": "% inhibition at 1 µM", "result": 37, "unit": "%"}]}
